Earlier results as cited in publication PMC10046553.

Target: CD71 (transferrin receptor 1) (Homo sapiens) (UniProt P02786)
Sequence (P02786 89-760): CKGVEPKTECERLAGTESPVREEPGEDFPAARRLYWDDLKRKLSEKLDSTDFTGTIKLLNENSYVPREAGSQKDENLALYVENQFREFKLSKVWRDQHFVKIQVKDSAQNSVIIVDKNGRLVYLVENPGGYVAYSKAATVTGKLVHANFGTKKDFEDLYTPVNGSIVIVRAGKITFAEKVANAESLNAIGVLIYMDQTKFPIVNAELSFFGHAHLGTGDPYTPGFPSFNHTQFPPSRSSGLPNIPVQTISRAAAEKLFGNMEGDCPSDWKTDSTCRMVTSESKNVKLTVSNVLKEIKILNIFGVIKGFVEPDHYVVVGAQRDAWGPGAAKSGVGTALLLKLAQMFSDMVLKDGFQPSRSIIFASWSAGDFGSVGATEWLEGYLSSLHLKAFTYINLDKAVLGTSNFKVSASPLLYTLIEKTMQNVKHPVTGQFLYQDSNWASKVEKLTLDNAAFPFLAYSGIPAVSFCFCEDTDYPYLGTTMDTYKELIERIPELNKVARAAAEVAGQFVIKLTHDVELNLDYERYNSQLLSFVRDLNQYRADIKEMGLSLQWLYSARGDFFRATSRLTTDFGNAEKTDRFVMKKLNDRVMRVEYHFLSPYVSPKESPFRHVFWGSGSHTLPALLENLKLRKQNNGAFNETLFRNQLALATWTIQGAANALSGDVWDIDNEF

**Q.** With “Human serum albumin (from UniProt P02768)” as the substance, how does the Kd read?
**A.** 750 nM
